Reference: the supplement of paper PMC6757056
± gives the standard deviation of the averaged measurements.

B1: library; a variant is named by its letters at N, in order (parent)
chain: GCUGUCACCGAGAAACUGUGAAGUAUAUCUUAAACCUGGGCACUUAAAAGAUAUAUGGAGUUAGUAGUGCAACCUGCUCGGUCUGAUGAGUCCNNNNNNGGACGAAACAGC

Legend:
cyclic di-GMP [1] = variants of: B1; experiment: normalized RNA/DNA level without ligand (relative to sTRSVctl = 100) (log10 (% of sTRSVctl)); HEK293T; ligand: cyclic di-GMP (c-di-GMP-II aptamer); higher = less ribozyme self-cleavage, higher mRNA level; settings: reporter: mCherry (pCS4076), ligand present: no
How it was run: (§1)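 For each 6-well well, 4 µg of library plasmid encoding mCherry-linked ribozyme switches, or eGFP-linked ones in some ligand experiments, was transfected into HEK293T. Any ligand was added 1 h before transfection, and RNA was extracted with EDTA 72 h after it, then reverse-transcribed, amplified, barcoded and sequenced. RNA level was obtained by dividing RNA reads by DNA reads, normalizing to a spiked-in non-cleaving sequence or to the top sequences, then scaling and log-transforming. The top set was 25 sequences, scaling was ×100 with log10, and ≥100 DNA reads were required.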

cyclic di-GMP [2] = variants of: B1; experiment: normalized RNA/DNA level with ligand (relative to sTRSVctl = 100) (log10 (% of sTRSVctl)); HEK293T; ligand: cyclic di-GMP (c-di-GMP-II aptamer); ligand concentration (+) RNA-Seq: 1 mM; higher = less ribozyme self-cleavage, higher mRNA level; settings: reporter: mCherry (pCS4076), ligand present: yes
How it was run: as §1

GACCGU
normalized RNA/DNA level without ligand (log10) (cyclic di-GMP [1]): 1.74 ± 0.066 | normalized RNA/DNA level with ligand (log10) (cyclic di-GMP [2]): 1.86 ± 0.03

GACUAA
normalized RNA/DNA level without ligand (log10) (cyclic di-GMP [1]): 1.55 ± 0.045 | normalized RNA/DNA level with ligand (log10) (cyclic di-GMP [2]): 1.74 ± 0.12

GACUAC
normalized RNA/DNA level without ligand (log10) (cyclic di-GMP [1]): 1.7044 ± 0.00077 | normalized RNA/DNA level with ligand (log10) (cyclic di-GMP [2]): 1.82 ± 0.15

GACUAG
normalized RNA/DNA level without ligand (log10) (cyclic di-GMP [1]): 1.668 ± 0.0042 | normalized RNA/DNA level with ligand (log10) (cyclic di-GMP [2]): 1.79 ± 0.16

GACUAU
normalized RNA/DNA level without ligand (log10) (cyclic di-GMP [1]): 1.645 ± 0.009 | normalized RNA/DNA level with ligand (log10) (cyclic di-GMP [2]): 1.81 ± 0.12

GACUUC
normalized RNA/DNA level without ligand (log10) (cyclic di-GMP [1]): 1.74 ± 0.038 | normalized RNA/DNA level with ligand (log10) (cyclic di-GMP [2]): 1.91 ± 0.1

UACUGC
normalized RNA/DNA level without ligand (log10) (cyclic di-GMP [1]): 1.712 ± 0.0056 | normalized RNA/DNA level with ligand (log10) (cyclic di-GMP [2]): 1.83 ± 0.13

UACUGG
normalized RNA/DNA level without ligand (log10) (cyclic di-GMP [1]): 1.731 ± 0.015 | normalized RNA/DNA level with ligand (log10) (cyclic di-GMP [2]): 1.85 ± 0.12

UACUGA
normalized RNA/DNA level without ligand (log10) (cyclic di-GMP [1]): 1.66 ± 0.044 | normalized RNA/DNA level with ligand (log10) (cyclic di-GMP [2]): 1.82 ± 0.11

UACUGU
normalized RNA/DNA level without ligand (log10) (cyclic di-GMP [1]): 1.6108 ± 0.00033 | normalized RNA/DNA level with ligand (log10) (cyclic di-GMP [2]): 1.79 ± 0.15

AACCCG
normalized RNA/DNA level without ligand (log10) (cyclic di-GMP [1]): 1.665 ± 0.014 | normalized RNA/DNA level with ligand (log10) (cyclic di-GMP [2]): 1.81 ± 0.06

AACCCA
normalized RNA/DNA level without ligand (log10) (cyclic di-GMP [1]): 1.621 ± 0.0091 | normalized RNA/DNA level with ligand (log10) (cyclic di-GMP [2]): 1.81 ± 0.13

UACUCA
normalized RNA/DNA level without ligand (log10) (cyclic di-GMP [1]): 1.77 ± 0.062 | normalized RNA/DNA level with ligand (log10) (cyclic di-GMP [2]): 1.89 ± 0.18

UACUCU
normalized RNA/DNA level without ligand (log10) (cyclic di-GMP [1]): 1.73 ± 0.053 | normalized RNA/DNA level with ligand (log10) (cyclic di-GMP [2]): 1.84 ± 0.07

UACUCC
normalized RNA/DNA level without ligand (log10) (cyclic di-GMP [1]): 1.76 ± 0.035 | normalized RNA/DNA level with ligand (log10) (cyclic di-GMP [2]): 1.9 ± 0.14

UACUCG
normalized RNA/DNA level without ligand (log10) (cyclic di-GMP [1]): 1.77 ± 0.06 | normalized RNA/DNA level with ligand (log10) (cyclic di-GMP [2]): 1.88 ± 0.17

AACGGC
normalized RNA/DNA level without ligand (log10) (cyclic di-GMP [1]): 1.68 ± 0.017 | normalized RNA/DNA level with ligand (log10) (cyclic di-GMP [2]): 1.8 ± 0.071

AACGGU
normalized RNA/DNA level without ligand (log10) (cyclic di-GMP [1]): 1.52 ± 0.049 | normalized RNA/DNA level with ligand (log10) (cyclic di-GMP [2]): 1.77 ± 0.1

AACGGG
normalized RNA/DNA level without ligand (log10) (cyclic di-GMP [1]): 1.51 ± 0.084 | normalized RNA/DNA level with ligand (log10) (cyclic di-GMP [2]): 1.68 ± 0.098

CACUCG
normalized RNA/DNA level without ligand (log10) (cyclic di-GMP [1]): 1.82 ± 0.042 | normalized RNA/DNA level with ligand (log10) (cyclic di-GMP [2]): 1.87 ± 0.11

CACUCA
normalized RNA/DNA level without ligand (log10) (cyclic di-GMP [1]): 1.39 ± 0.1 | normalized RNA/DNA level with ligand (log10) (cyclic di-GMP [2]): 1.62 ± 0.093

CACUCC
normalized RNA/DNA level without ligand (log10) (cyclic di-GMP [1]): 1.74 ± 0.077 | normalized RNA/DNA level with ligand (log10) (cyclic di-GMP [2]): 1.84 ± 0.091

CACUCU
normalized RNA/DNA level without ligand (log10) (cyclic di-GMP [1]): 1.6 ± 0.019 | normalized RNA/DNA level with ligand (log10) (cyclic di-GMP [2]): 1.77 ± 0.12

UAAUUG
normalized RNA/DNA level without ligand (log10) (cyclic di-GMP [1]): 1.71 ± 0.04 | normalized RNA/DNA level with ligand (log10) (cyclic di-GMP [2]): 1.83 ± 0.13

UAAUUC
normalized RNA/DNA level without ligand (log10) (cyclic di-GMP [1]): 1.73 ± 0.021 | normalized RNA/DNA level with ligand (log10) (cyclic di-GMP [2]): 1.84 ± 0.099

UAAUUA
normalized RNA/DNA level without ligand (log10) (cyclic di-GMP [1]): 1.7 ± 0.018 | normalized RNA/DNA level with ligand (log10) (cyclic di-GMP [2]): 1.85 ± 0.062

AACAGC
normalized RNA/DNA level without ligand (log10) (cyclic di-GMP [1]): 1.63 ± 0.078 | normalized RNA/DNA level with ligand (log10) (cyclic di-GMP [2]): 1.78 ± 0.14

AACAGG
normalized RNA/DNA level without ligand (log10) (cyclic di-GMP [1]): 1.5 ± 0.036 | normalized RNA/DNA level with ligand (log10) (cyclic di-GMP [2]): 1.66 ± 0.14

CACCCG
normalized RNA/DNA level without ligand (log10) (cyclic di-GMP [1]): 1.81 ± 0.025 | normalized RNA/DNA level with ligand (log10) (cyclic di-GMP [2]): 1.94 ± 0.12
